Reference: a protein production outcome set (Wang et al. 2014)

Assay: label from the status in PepcDB records

Sequence | protein production
MPSQDYLRVLNPSLSGPTPIAFIILALISAGLLIIIWRNRDLISTDNLRGKIIFIVISAALIFTFGRISFALSEVLIFLWALSILWIRGNTDNIEMNLAMAAWVLAYLYMHSFHPVKADRYIITVLPALAYAISLSLNNLSALMRSRRASTVLSIAVTLLMVSSAIHYTAGWPQEYGIVKGERSGAWLMNHDPSYRDRVIAADRGPAFTWYLGDYVFTRIIHPQRRELSLKYFYEVNPDYYIFWTGKTELPEGYRVIYSRDGVPLPGRFSRYAGILPLRYRIQWMLR | failed
MAPPSDSDPREPSPPLFQGRGLTKRFGSFVANQAIDLDIAGGEVHALLGENGAGKSTLVKLITGLLQPDDGRMIWRGTPISFAGPAEARACGIAAVSQHFALFDNLTVVENVALGLDRRISVGRLATELEQISQRYGLPLDPKREVWRLSVGERQRIEIVRALLQNPQLLILDEPTAVLTPAEADRLFDVLQRLRADGRALLYISHKLDEVKRLASVATILRAGRVVGSCDPRQESAASMARMMVGSDVTAPKQSSHSIGGPLLSVSGLTQRPDDPHGVTLRDIALEVRSGEIVGIAGVAGNGQDELFAALSGETPIAQSDVIHIAGEAAGSLSINQRRRLGAAFVPEQRLGHATVPTMSLSDNALLTGHATGALVKFGLVNRGAALALVDRVSEAFDVRKASRDPEAARLSGGNLQKFIVGREILRQPRLLIVDQPSWGLDAGAASAIRQALLDLAASGAAVLVISQDLDELIEIADRIAVMFHGRLSPPRPVSEIGRDQLGLLMGGSGWPAEVRDVAGALEHHHHHH | failed
MAQTCSILYIPYMLLLSSLFAAGIATITEGELLSSMIGVQGLIYCKRGSKLTPIQGAVARVTCERTDEYGYEAEDVTVLSQATDAKGYFLATLSSSEVKDYKKVIKIKECRAFLELSPSDTCSFPTEINRGISGAILQNYRLLENKLKMKLFTVGPFVFSSEETQDKSIPNGY | failed
MVITNFLILLLGLVFLVKGSDYFVKSASSIAKKLGISEFIIGLTLVAVGTSIPELASSMAASIQQASGIVIGNVVGSNIANIGLIVGIAAFLSPMKTEVEMLRRDGYIMLFAALLFFAFALNGELSKIEAGLFLLLYIAYTFFLFEETDKHEGKLYFKEFIKYFVKFQYINSARQKINGINNGVSRTNGDSGNKNCQPKNSFSKDILALILSCAAIIIGAKYFVSESIFFAELLGIPDTIIGTTLVAIGTSLPELAVTVSAARQGYGNIALGNIIGSNITNILMILGVSGLLFPIAVAEISLVFTAPVMIFISVVLLIFISTGWEIKRWEGAALMSLYAAFLFVLFRIS | failed
MSVNTNEGSKNLWKDLPLELLSSVMTFLEIKDNVRASVVCKSWFEAAVSVRVIDKSPWLMYFPETKNTYDFYDPSNCKKYTMELPKSLVGFIVRYSKDGWLLMSQEDSSHFVLFNPFTMDVVALPFLHLFTYYQLVGFSSAPTSSECVVFTIKDYDPGHVTIRTWSPGQTMWTSMQVESQFLDVDHNNVVFSNGVFYCLNQRNHVAVFDPSLRTWNVLDVPPPRCPDDKSWNEGKFMVGYKGDILVIRTYENKDPLVFKLDLTRGIWEEKDTLGSLTIFVSRKSCESRTYVKDGMLRNSVYFPELCYNEKQSVVYSFDEGRYHLREHDLDWGKQLSSDNIWIEPPKNAFELV | failed
MSLSFTPLHTTSEAFIEKALPWLEDRYFHIAYLNPNGYTAYPQGAFRHYLAFGSEAAIHVSDATRVFETWNEIKKGYTNEWIFVFASYDGKNSVEQLHTSKEAGIAFAAATFFIPEHVWEIQPDGILIHKGSGSSLVTEIQHAEPSTPVQQSDIFVKQVVSKESYFNAFDELQQIIAQGDAYEINYCIPFTAKGNISPAATYQRLNKKTPMPFSVYYKFNTEYILSASPERFIKKTGDTIISQPIKGTSKRGKSKAEDEMLKQQLGTSEKEQSENTMIVDLVRNDLSRTAVAGSVCVPELSGLYTFPNVHQLISTVQSTIDPACSSIDVIQQAFPMGSMTGAPKVNVMKFIDRIESMARGPFSGTVGYMDPHDNFDFNVLIRSIFYNSATQELFMEAGSAITSYAKAETEYEECLLKITPMIHILNNQEGHHHHHH | not failed
MRFKISLTTRLSLIFSAVMLTVWWLSSFILISTLNDYFDNQDRDFLTGKLQLTEEFLKTETFRNKTDIKSLSEKINDAMVGHNGLFISIKNMENEKIVELYAKNSVVPAVLLNKSGDILDYMIQTEENNTVYRSISRRVAVTPEQGKSKHVIITVATDTGYHTLLMDKLSTWLFWFNIGLVFISVFLGWLTTRIGLKPLREMTSLASSMTVHSLDQRLNPDLAPPEISETMQEFNNMFDRLEGAFRKLSDFSSDIAHELRTPVSNLMMQTQFALAKERDVSHYREILFANLEELKRLSRMTSDMLFLARSEHGLLRLDKHDVDLAAELNELRELFEPLADETGKTITVEGEGVVAGDSDMLRRAFSNLLSNAIKYSPDNTCTAIHLERDSDCVNVMITNTMSGQVPANLERLFDRFYRADSSRFYNTEGAGLGLSITRSIIHAHGGELSAEQQGREIVFKVRLLMD | failed
MTAQLISPTIHGILDYLLGAVLVVAPSVLGLPTGPAVIAYAVGGAHLAMSLLTGYAPGALRVIPFWAHGAVEAAGWAGLLVFLGLLTAPADGLFLASGVGILVVSALTDYGVETDGVRLRARRHAHARP | failed
MSRRDFTRYVRDKAWLAIPGWLFVAALTLLALRKHLSNLRQHQQLLQGNERIRDSEEQARLILDTAPLALLLVNPQTARIRHANSLAREMLGLPPRDPEQAAGSELNLPLKLQPVEQWLSEGEEVLQQEVELELEDKSRLWAIVSLRRLGHDSQPSALIALYDISGRKLLEQQLHESNQQLAEMAVTDPLTRLYNRRHADMVLRDEISRCERYGQTMAIAVFDIDHFKRFNDQYGHQAGDDVLVAVANALRDTTRNTDINARIGGEEFMVIFPYTRLRDAHKVMSRLQMALTHTTFPFVEQRITFSGGVTDWRPGDSPALMMSRADKLLYDAKQAGRNVVLSDQEEA | failed
MKQSLQIWLEAARPKTLPLALVSILTGSVLAYSAGHFSLTIAIMAFATATLLQILSNLANDYGDAVKGTDNENRLGPQRAMQTGAVSAKQMKQAIIFNIVLTAISGLVLVFYALSSPESIITFIGLGILAIIAAIAYTMGSKPYGYVGLGDISVFLFFGLLGVSGTYFLHTGHVDTTLFLPALGCGLLAVAVLNINNMRDIENDRECGKRTVAVRLGQHKAKQYHFILLGGAILAFAAYLLIQDKPLWISLPFLLSVYVVIHHGKAVWDTEKPAQIAPMLPVIVKCSLVTNVLFATIVVAQTLVS | failed
MPDPQISAIICTHNRDTYLGAAIDSLLVQDFAGEFEVVVIDNGSSDRTREVVEQRSSDSRLKYVFEPTIGLSVARNTGAKFASAEILAYLDDDAVASTHWLQVLYAAYQNYPQLAIAGGKVTLLWPPDTQPPRWLSSGLAGNLGAYDLGDKVVYIQQPGLTPRGLNYSIRRTFLEEIGGFDPHLGRVGKNLLSNEELQMTELALTGGWQVAYLPEALVAHNVAPERLNRSWFLNRGWWQGISECYREQLSGKAGVGQLSRGGERLARGLYKAFRYFSNPAERFDNLVYAYGQIGYLNAVLQGLLFTANNKGSQLEHHHHHH | not failed
MLTHREYFNSKADIWDSLCAPEEKAKLETIIRGLNIAPGSTVLDVGCGTGILIPYLLAAVGPAGRIVALDIAEAMLERAQSKGFPANVEFICADVVSVPYPDATFDEVICNSAFPHFPHKLKALKEMARVLKPGGRVVICHTKARETINNLHRSLGGVIAGDQIPPGSEMMGMLVAAGLTGIEIDEALDYYLASGFKAMYE | failed
RFEGGDHDLIPNNDAQNAAVNRALNAEDFALVHGPPGTGKTYTIATLVQAFVARGDRVLVSAFTNRAVDNALDALRQQGHEDIVRVGTETGVRADMQDLRLDRSGDPGERAAALRSAPVVAATTATCGSRILRELEFDVVLVDEASQLTEPDTLAAINRGARFVLVGDHEQ | failed
MHSHPSPKFSVITVTYNAEKVLEDTVQSVISQTYHHVEYIIIDGASKDGTLEIVNRYRNRINQLVSEPDKGLYDAMNKGIALATGDYLCFLNAGDSFHEDDTLQKMVHSINGNELPDILYGETALVDAERHFLRMRRLSAPETLNWKSFKQGMLVCHQAFFPRHTLIEPYDLQYRFSADFDWCIHIMKKARTFHNTHLILIDYLAEGMTTQNHKASLLERFRIMTRHYGLLSTLAHHAWFVVRSFSRNSATPSDAPFLEHHHHHH | failed
MGLFDFLKKGLQKTKETFFGRVVKLLKGKKLDDETREELEELLIQADVGVETTEYILERLEEKDGDALESLKEIILEILNFDTKLNVPPEPPFVIMVVGVNGTGKTTSCGKLAKMFVDEGKSVVLAAADTFRAAAIEQLKIWGERVGATVISHSEGADPAAVAFDAVAHALARNKDVVIIDTAGRLHTKKNLMEELRKVHRVVKKKIPDAPHETLLVIDATTGQNGLVQAKIFKEAVNVTGIILTKLDGTAKGGITLAIARELGIPIKFIGVGEKAEDLRPFDPEAFVEVLLSE | not failed
MEQDTQHVKPLQTKTDIHAVLASNGRIIYISANSKLHLGYLQGEMIGSFLKTFLHEEDQFLVESYFYNEHHLMPCTFRFIKKDHTIVWVEAAVEIVTTRAERTEREIILKMKVLEEETGH | failed
MEKNVSQVTAQEETALKARGYNEDLLPSSPKQRTMGARNFFTLWMGSIHNIPNYAAVGGFIFLGLSPLQVMLAVVLSSFIVATFMNLNGVAGSKYGIPFAMHLQSTYGSLGAKLPGFLRGCVAAIAWFGLQTFTGSLALLIILGKFWPNFLEIGGSFQFFGLRLPELMAFTLFWLLNVAIGFGGSKILNRFTAILSPLIYVVIIGLTIWAIRAGGGLTPILSYQVSGAIRSVNPLVAYLIIFNSVVAVWSAPGASVADFTKNARSTRAQVVGQTTGLVVGYGIFAFSSVVILLGGSLYFGIQEWNILNIIDRLDNVAVVVLAMSVFLLTTISTNATGNIIPAGYQLAALFPKKMTYKKGVMIASVISFLIMPWKLMENADSIFIFLNAIGAVLGPVAGVMIANYYFVQKQQIDLNALYVDKHKKEEANPFYGLNKPAYVATILALVLSLSGQFIPQVKIIADISWFVGFATGFVLYLVLKKWTWDSKKVKETAYQEGK | failed
MSPTSMYIAWGWKDIIPQLPALIHAFQTSEMNTPKMRRLCKFTALPEAMNNIGDRSDVYSFRIFLGTIITVKVSYETLDRLTARHTSLRCYRVACLRIKYAYYTNNNASPGHSFNIKLNIDTGVKGSI | failed
MMINRINLTDIRSFVLIARLGNFTKAAETLDVSRSHVSRQISSLEKQMGVTLLIRTTRTLRLTEAGKHFYHQCEQALHTIDQALLSAVDDVEKVQGEIKINCVGGYLGEVFLADIVNTFMQQYPDVSISLDFSSNRVDLIEEEFDIAFRMGSLEDSGFVAKKLLDIEMGTLASPKYLQQYGRPSHPKELQQHHCLTGSVRKWHFQSLVNKEHYDVSIKGNLQCKNGRVLVAGAIAGNGIIRVPLIYCQQELDDKKLVQVFEEWGIPTVDFSAIYHRDRYQPKRIRTFIDFVKQYSDSLFT | failed
METLNDIKKILINVGLYQGFDLTDPKVSEEVNHETANMKWIKDYTSDGNWDNEFKEDLKNFLDYMEVCQLALNDKNFKIASNSLFMAMIYAGNLSLIFDSIKTDISTLLSAEYKKNSFSWPSLDE | not failed
MYLCGSNQSRKETLENKRYNNVEEWANTLSHGAGILLGVIAGYFLLAKAAAGAEPKWAVACVTVYLFGMLSSYVSSTWYHGSRPGKLKELLRKFDHGAIYLHIAGTYTPFTLLVMRHAGGWGWGIFSFVWLSAIVGFILSFKKLKEHSNLETACYIAMGACILVAMKPLMDHLAEMGAGPAFWWLIGGGVSYIIGAVFYSLRKPYMHATFHLFCLGGSIGHIIAIWLIL | failed
MCILGTTAKSLRLASVYGLSLFILFIVPLYLWQSTAAKMIAEVDWLDVATEGALFVLGMCWLMVIVSVRPSGRVTNLLIAGLSSYCLGCYLDLLDEIFIVKTLPIYNWFEKMPTPVGLLVLTGGLWLWRDEQTVVNRQLQTREQFHREHQLTDSLTLLNDAKAFEHHLVKQLSQNQSVGLLMLDVDYFHRYNKNQGVEEGDKLLSQLALWLSSTLRNQDLVCRYAGDRFVILLRGAIPSFVSVMAEQLQHGIKAFDCSATVVWTLPSPKMLPLQNSTCTAKEEAIALLQVLNQKMSQQKELRVSEAIAPSPFNTLDKSAASELN | failed
